B1: Gamma-aminobutyric acid receptor subunit beta-3 (Rattus norvegicus (Rat)), P63079 (parent)
chain: MWGFAGGRLFGIFSAPVLVAVVCCAQSVNDPGNMSFVKETVDKLLKGYDIRLRPDFGGPPVCVGMNIDIASIDMVSEVNMDYTLTMYFQQYWRDKRLAYSGIPLNLTLDNRVADQLWVPDTYFLNDKKSFVHGVTVKNRMIRLHPDGTVLYGLRITTTAACMMDLRRYPLDEQNCTLEIESYGYTTDDIEFYWRGGDKAVTGVERIELPQFSIVEHRLVSRNVVFATGAYPRLSLSFRLKRNIGYFILQTYMPSILITILSWVSFWINYDASAARVALGITTVLTMTTINTHLRETLPKIPYVKAIDMYLMGCFVFVFLALLEYAFVNYIFFGRGPQRQKKLAEKTAKAKNDRSKSEINRVDAHGNILLAPMDVHNEMNEVAGSVGDTRNSAISFDNSGIQYRKQSMPKEGHGRYMGDRSIPHKKTHLRRRSSQLKIKIPDLTDVNAIDRWSRIVFPFTFSLFNLVYWLYYVN

In this assay the parent is B1. The conditions noted are these: with ap2m1_rat Ap2m1, P84092.
Sequence of ap2m1_rat Ap2m1, P84092 (P84092 whole entry): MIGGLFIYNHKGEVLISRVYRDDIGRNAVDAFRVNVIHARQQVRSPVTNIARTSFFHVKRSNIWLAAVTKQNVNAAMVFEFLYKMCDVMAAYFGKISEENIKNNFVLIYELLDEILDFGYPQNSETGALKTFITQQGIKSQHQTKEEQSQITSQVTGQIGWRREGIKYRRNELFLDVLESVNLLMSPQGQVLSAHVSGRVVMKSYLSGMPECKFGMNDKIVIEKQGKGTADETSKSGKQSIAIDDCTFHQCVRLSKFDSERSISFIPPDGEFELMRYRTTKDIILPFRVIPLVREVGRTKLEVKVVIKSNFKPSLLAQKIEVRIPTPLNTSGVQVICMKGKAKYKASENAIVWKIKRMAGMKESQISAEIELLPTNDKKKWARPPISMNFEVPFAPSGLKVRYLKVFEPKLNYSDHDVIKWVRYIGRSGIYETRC
For MWGFAGGRLFGIFSAPVLVAVVCCAQSVNDPGNMSFVKETVDKLLKGYDIRLRPDFGGPPVCVGMNIDIASIDMVSEVNMDYTLTMYFQQYWRDKRLAYSGIPLNLTLDNRVADQLWVPDTYFLNDKKSFVHGVTVKNRMIRLHPDGTVLYGLRITTTAACMMDLRRYPLDEQNCTLEIESYGYTTDDIEFYWRGGDKAVTGVERIELPQFSIVEHRLVSRNVVFATGAYPRLSLSFRLKRNIGYFILQTYMPSILITILSWVSFWINYDASAARVALGITTVLTMTTINTHLRETLPKIPYVKAIDMYLMGCFVFVFLALLEYAFVNYIFFGRGPQRQKKLAEKTAKAKNDRSKSEINRVDAHGNILLAPMDVHNEMNEVAGSVGDTRNSAISFDNSGIQYRKQSMPKEGHGRYMGDRSIPHKKTHLRRRAAQLKIKIPDLTDVNAIDRWSRIVFPFTFSLFNLVYWLYYVN [S432A;S433A], the “effect of a mutation on the interaction” value is on record as “decreasing interaction strength”.

Values taken from IntAct's records for PubMed 19617557.
